Measured values as given in article PMC6805484, “The RNA-binding ubiquitin ligase MKRN1 functions in ribosome-associated quality control of poly(A) translation”.

Molecular target: His-MKRN1 wt;His-PABPC1 (human (Homo sapiens);human (Homo …, UniProt Q9UHC7;P11940 1-482;1-636, |))
Assay: pull-down; PABPC1 strongly increases MKRN1 recovery; Binding: 50 mM Tris-HCl pH 7.4, 500 mM KCl, 12.5 mM MgCl2, 1% Triton X-100, 1 h, 4 °C; wash: 200 mM NaCl, 10 mM MgCl2, 50 mM HEPES pH 7.4, 0.5% Igepal CA630, 1% Triton X-100
Conditions: protein: recombinant;recombinant; tags: N-His6;N-His6; copies: 1;1; label: 3' biotin

Chain of His-MKRN1 wt;His-PABPC1 (human (Homo sapiens);human (Q9UHC7 whole entry, chain 1 of 2): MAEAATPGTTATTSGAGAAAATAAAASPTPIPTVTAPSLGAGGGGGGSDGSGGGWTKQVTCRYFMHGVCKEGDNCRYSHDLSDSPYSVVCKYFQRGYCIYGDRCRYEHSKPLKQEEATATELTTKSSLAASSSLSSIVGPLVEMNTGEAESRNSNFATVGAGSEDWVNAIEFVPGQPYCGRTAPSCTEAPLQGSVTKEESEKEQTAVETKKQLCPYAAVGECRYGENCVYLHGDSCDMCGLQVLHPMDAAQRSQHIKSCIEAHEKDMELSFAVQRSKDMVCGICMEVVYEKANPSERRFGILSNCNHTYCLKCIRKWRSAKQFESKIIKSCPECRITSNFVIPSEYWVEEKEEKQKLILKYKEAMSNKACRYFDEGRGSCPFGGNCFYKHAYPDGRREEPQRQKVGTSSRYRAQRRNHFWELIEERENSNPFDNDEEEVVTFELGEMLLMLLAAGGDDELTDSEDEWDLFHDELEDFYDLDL
Chain of His-MKRN1 wt;His-PABPC1 (human (Homo sapiens);human (P11940 whole entry, chain 2 of 2): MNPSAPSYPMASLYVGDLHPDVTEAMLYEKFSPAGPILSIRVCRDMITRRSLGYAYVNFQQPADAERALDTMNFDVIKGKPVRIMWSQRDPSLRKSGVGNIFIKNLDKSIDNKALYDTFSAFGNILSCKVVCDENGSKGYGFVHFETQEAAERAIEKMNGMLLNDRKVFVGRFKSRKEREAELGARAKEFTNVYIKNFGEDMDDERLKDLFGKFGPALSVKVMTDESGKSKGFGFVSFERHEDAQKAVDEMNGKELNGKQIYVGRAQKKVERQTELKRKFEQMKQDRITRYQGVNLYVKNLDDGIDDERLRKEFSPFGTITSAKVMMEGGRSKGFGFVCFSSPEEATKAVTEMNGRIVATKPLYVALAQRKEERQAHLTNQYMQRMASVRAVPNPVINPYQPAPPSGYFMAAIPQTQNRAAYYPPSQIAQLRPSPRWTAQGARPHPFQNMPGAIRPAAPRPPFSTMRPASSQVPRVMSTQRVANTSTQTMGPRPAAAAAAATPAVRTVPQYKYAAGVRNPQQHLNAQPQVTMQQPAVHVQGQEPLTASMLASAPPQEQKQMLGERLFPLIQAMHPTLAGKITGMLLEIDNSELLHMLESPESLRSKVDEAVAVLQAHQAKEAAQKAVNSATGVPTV

B1: A20 RNA (SRSF4 3' UTR end + A20) (ssRNA)
RNA: GGAAAUAAACUGUAGAGUUCCAAAAAAAAAAAAAAAAAAAAA
binding result: binds
